# Residue numbers refer to the chain shown, from its start.
# B1: SEQ ID NO 117 (designed binder)
# chain: MLPAPKNLVVSRVTEDSARLSWTAPDAAFDSFTIPYGEAFNPGEAIVLTVPGSERSYDLTGLKPGTEYDVFIEGVKGGTLSWPLSAIFTT
# B2: SEQ ID NO 118 (designed binder)
# chain: B1 chain with T33R, P35L, A39V, F40D, N41P, P42W, F71W, T79K
# B3: SEQ ID NO 119 (designed binder)
# chain: MLPAPKNLVVSRVTEDSARLSWTAPDAAFDSFHIEYEETPQKGEAIFLRVPGSERSYDLTGLKPGTEYVVNIRGVKGGDLSSPLGALFTT
# B4: SEQ ID NO 120 (designed binder)
# chain: MLPAPKNLVVSRVTEDSARLSWTAPDAAFDSFRIEYIEWWVGGEAIVLTVPGSERSYDLTGLKPGTEYWVDIKGVKGGKRSYPLSAIFTT
# B5: SEQ ID NO 121 (designed binder)
# chain: MLPAPKNLVVSRVTEDSARLSWTAPDAAFDSFSIDYPEFPVRGEAIVLTVPGSERSYDLTGPKPGTEYNVTIQGVKGGFPSMPLSAIFTT
# B6: SEQ ID NO 122 (designed binder)
# chain: MLPAPKNLVVSRVTEDSARLSWTAPDAAFDSFQIPYWEQSLGGEAIVLTVPGSERSYDLTGLKPGTEYEVWIEGVKGGDLSFPLSAISTT
# B7: SEQ ID NO 124 (designed binder)
# chain: B5 chain with P62L, N69A, Q73W, P80T, M82Q
# B8: SEQ ID NO 125 (designed binder)
# chain: MLPAPKNLVVSRVTEDSARLSWTAPDAAFDSFVIEYFEFVGEGEAIVLTVPGSERSYDLTGLKPGTEYDVGIYGVKGGSLSSPLSAIFTT
# B9: SEQ ID NO 126 (designed binder)
# chain: MLPAPKNLVVSRVTEDSARLSWTAPDAAFDSFSIDYLELGESGEAIVLTVPGSERSYDLTGLKPGTEYWVYIFGVKGGYPSAPLSAIFTT
# B10: SEQ ID NO 39 (designed binder)
# chain: B4 chain with R33D, E35D, I37R, V41T, G42L, W69Y, D71N, K73Q, K79L
# B11: SEQ ID NO 127 (designed binder)
# chain: MLPAPKNLVVSRVTEDSARLSWTAPDAAFDSFPIPYGESPPSGEAIVLTVPGSERSYDLTGLKPGTEYVVIIRGVKGGGRSGPLSAISTT
# B12: SEQ ID NO 128 (designed binder)
# chain: MLPAPKNLVVSRVTEDSARLSWTAPDAAFDSFIINYIEIVQYGEAIVLTVPGSERSYDLTGLKPGTEYPESIWGVKGGGASSPLSAIFTT
# B13: SEQ ID NO 130 (designed binder)
# chain: MLPAPKNLVVSRVTEDSARLSWTAPDAAFDSFHIPYVEAEVPGEAIQLHVPGSERSYDLTGLKPGTEYYVEIWGVKGGFYSPPLIAEFTT
# B14: SEQ ID NO 132 (designed binder)
# chain: B1 chain with P35V, G37A, A39V, F40T, N41Y, P42D, T79E
# B15: SEQ ID NO 133 (designed binder)
# chain: B1 chain with T33P, P35V, F40W, N41V, P42T, F71W, T79E
# B16: SEQ ID NO 134 (designed binder)
# chain: MLPAPKNLVVSRVTEDSARLSWTAPDAAFDSFWIDYYERKYVGEAIVLTVPGSERSYDLTGLKPGTEYEVTIYGVKGGWYSDPLSAIFTT
# B17: SEQ ID NO 136 (designed binder)
# chain: MLPAPKNLVVSRVTEDSARLSWTAPDAAFDSFFIYYIESYPAGEAIVLTVPGSERSYDLTGLKPGTEYWMGIDGVKGGRWSTPLSAIFTT
# B18: SEQ ID NO 40 (designed binder)
# chain: B8 chain with F37W, F39Y, E42H, D69S, S82R
# B19: SEQ ID NO 137 (designed binder)
# chain: MLPAPKNLVVSRVTEDSARLSWTAPDAAFDSFEIEYDEPSVAGEAIVLTVPGSERSYDLTGLKPGTEYRVFIWGVKGGNQSWPLSAIFTT
# B20: SEQ ID NO 138 (designed binder)
# chain: B4 chain with R33F, E35K, V41A, G42D, W69L, D71E, K73Y, K79R, R80Q
# B21: SEQ ID NO 139 (designed binder)
# chain: B9 chain with S33D, D35S, L37W, L39S, E41K, S42Y, R55S, W69L, Y71D, A82E
# B22: SEQ ID NO 140 (designed binder)
# chain: B5 chain with S33W, D35S, P37E, F39S, P40D, V41T, R42E, V47Y, T49R, P62L
# B23: SEQ ID NO 141 (designed binder)
# chain: B8 chain with F39Q, V40F, G41N, E42L, D69L, S79W, S82H
# B24: SEQ ID NO 142 (designed binder)
# chain: MLPAPKNLVVSRVTKDSARLSWTAPDAAFDSFHIAYEEATTYGEAIFLRVPGSERSYDLTGLKPGTEYEVKIHGVKGGADSKPLVAPFTT
# B25: SEQ ID NO 143 (designed binder)
# chain: MLPAPKNLVVSRVTEDSARLSWTAPDAAFDSFHIAYEEADSEGEAIYLRVPGSERSYDLTGLKPGTEYSVNIQGVKGGIVSFPLHAEFTT
# B26: SEQ ID NO 144 (designed binder)
# chain: MLPAPKNLVVSRVTEDSARLSWTAPDAAFDSFIIPYAEVRPDGEAIVLTVPGSERSYDLTGLKPGTEYSVLIHGVKGGKLSLPLSAIFTT
# B27: SEQ ID NO 145 (designed binder)
# chain: B1 chain with T33F, G37A, A39P, F40S, N41P, P42T, F71W
# B28: SEQ ID NO 146 (designed binder)
# chain: B26 chain with I33Y, P35A, V39P, K79L, L82S
# B29: SEQ ID NO 41 (designed binder)
# chain: B17 chain with V10I, M70V
# B30: SEQ ID NO 147 (designed binder)
# chain: B26 chain with I33F, P35G, A37L, V39P, R40Q, D42P, K79R, L80N, L82D, F88S
# B31: SEQ ID NO 149 (designed binder)
# chain: B26 chain with L82E
# B32: SEQ ID NO 150 (designed binder)
# chain: B26 chain with I33P, P35A, V39P, R40S, D42T, K79H, L82D
# B33: SEQ ID NO 151 (designed binder)
# chain: B26 chain with I33F, V39P, R40S, D42T, S69G, L71V, H73L, K79Y, L80G, L82D
# B34: SEQ ID NO 152 (designed binder)
# chain: B5 chain with S33F, D35G, P37L, F39P, P40Q, V41P, R42P, P62L, M82S
# B35: SEQ ID NO 153 (designed binder)
# chain: MLPAPKNLVVSRVTEDSARLSWTAPDAALDSFRIAYTEYFVGGEAIVLTVPGSERSYDLTGLKPGTEYGVGIYGVKGGAGSSPLSAIFTT
# B36: SEQ ID NO 154 (designed binder)
# chain: B26 chain with I33F, V39P, K79L, L82S
# B37: SEQ ID NO 155 (designed binder)
# chain: MLPAPKNLVVSRVTEDSARLSWTAPDAAFDSFPITYRERSQYGEAIVLTVPGSERSYDLTGLKPGTEYVVPIEGVKGGRGSKPLSAIFTT
# B38: SEQ ID NO 156 (designed binder)
# chain: B8 chain with V33A, F39N, V40L, E42I, D69V, G71N, S79W
# B39: SEQ ID NO 42 (designed binder)
# chain: B16 chain with W33T, D35E, R39S, K40F, V42G, E69Y, T71S, Y80L, D82R
# B40: SEQ ID NO 157 (designed binder)
# chain: B8 chain with V33A, F37Y, F39Y, E42N, D69Q, S79Y, L80Y, S82R
# B41: SEQ ID NO 158 (designed binder)
# chain: B9 chain with S33I, G40D, E41D, S42Y, W69P, F73Y, Y79L, A82T
# B42: SEQ ID NO 159 (designed binder)
# chain: B26 chain with I33L, V39T, R40S, D42S, K79R, L80N, L82D
# B43: SEQ ID NO 160 (designed binder)
# chain: B1 chain with T33N, P35A, A39W, F40R, N41Q, P42H, E73D, T79N
# B44: SEQ ID NO 161 (designed binder)
# chain: MLPAPKNLVVSRVTEDSARLSWTAPDAAFDSFTIRYWEELPTGEAIVLTVPGSERSYDLTGLKPGTEYTVEIFGVKGGYLSRPLSAISTT
# B45: SEQ ID NO 162 (designed binder)
# chain: B24 chain with K15E, E69D, K71W, H73E, A79T, D80I, K82G, V85S, P87I
# Target: human serum albumin (human) (UniProt P02768)
# Assay: screening ELISA
# human serum albumin (human), sequence (P02768 25-609 limits assumed): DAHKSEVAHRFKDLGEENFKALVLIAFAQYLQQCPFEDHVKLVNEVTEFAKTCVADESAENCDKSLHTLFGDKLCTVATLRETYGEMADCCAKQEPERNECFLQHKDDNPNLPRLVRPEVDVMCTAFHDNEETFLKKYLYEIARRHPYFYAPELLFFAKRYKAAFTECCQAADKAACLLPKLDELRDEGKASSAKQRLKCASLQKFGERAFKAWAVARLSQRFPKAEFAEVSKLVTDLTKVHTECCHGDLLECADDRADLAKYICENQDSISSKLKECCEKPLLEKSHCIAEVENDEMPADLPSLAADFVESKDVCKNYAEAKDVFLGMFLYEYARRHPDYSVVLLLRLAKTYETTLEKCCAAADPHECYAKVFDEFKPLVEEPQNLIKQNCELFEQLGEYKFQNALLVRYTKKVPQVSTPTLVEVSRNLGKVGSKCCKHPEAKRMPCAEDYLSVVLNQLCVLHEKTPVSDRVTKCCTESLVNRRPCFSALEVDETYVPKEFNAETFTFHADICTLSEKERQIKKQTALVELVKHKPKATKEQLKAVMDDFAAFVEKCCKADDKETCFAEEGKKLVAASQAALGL
row,Binder,HSA
1,B1,23500
2,B2,18800
3,B3,1850
4,B4,1850
5,B5,28600
6,B6,29600
7,B7,3450
8,B8,1050
9,B9,1750
10,B10,4160
11,B11,93300
12,B12,3250
13,B13,6050
14,B14,2350
15,B15,5000
16,B16,1950
17,B17,5700
18,B18,2960
19,B19,2050
20,B20,3500
21,B21,2100
22,B22,1600
23,B23,3150

row,Binder,HSA
1,B24,3400
2,B25,9250
3,B26,2750
4,B27,48400
5,B28,3800
6,B29,10100
7,B30,71200
8,B31,3350
9,B32,3500
10,B33,55000
11,B34,5300
12,B35,13100
13,B36,4150
14,B37,26000
15,B38,5000
16,B39,5920
17,B40,2450
18,B41,1350
19,B42,1950
20,B43,3300
21,B44,5050
22,B45,1850

# — patent publication US20210145976A1
